Assay results as given in article PMC7584627.

Tests used:
[1] = target: LuS-N71-SpyTag (Aquifex aeolicus); experiment: SDS-PAGE of the covalent conjugate, band intensities; conjugated product or conjugation mixture on SDS-PAGE with DTT; band intensity and molecular weight used to work out the molar share of conjugated nanoparticle subunit
[2] = target: ferritin-N96-SpyTag (Helicobacter pylori); experiment: as above

## RSV F-SpyCatcher
[1]
  percent of nanoparticle subunit conjugated: 67%
[2]
  percent of nanoparticle subunit conjugated: 85%

## PIV3 F-SpyCatcher
[1]
  percent of nanoparticle subunit conjugated: 68%
